Key:
Assay in all cases: EMSA
p73 DBD = target: T1, p73 DBD (UniProt O15350 104-333)
T1 sequence: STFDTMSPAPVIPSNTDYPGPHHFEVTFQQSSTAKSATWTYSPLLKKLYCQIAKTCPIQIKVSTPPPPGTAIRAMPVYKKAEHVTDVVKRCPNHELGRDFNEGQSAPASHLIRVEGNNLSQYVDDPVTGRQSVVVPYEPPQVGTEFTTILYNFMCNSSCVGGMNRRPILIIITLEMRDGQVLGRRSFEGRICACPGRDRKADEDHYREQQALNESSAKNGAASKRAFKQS

p63 DBD = target: T2, p63 DBD (UniProt Q9H3D4 154-365)
T2 sequence: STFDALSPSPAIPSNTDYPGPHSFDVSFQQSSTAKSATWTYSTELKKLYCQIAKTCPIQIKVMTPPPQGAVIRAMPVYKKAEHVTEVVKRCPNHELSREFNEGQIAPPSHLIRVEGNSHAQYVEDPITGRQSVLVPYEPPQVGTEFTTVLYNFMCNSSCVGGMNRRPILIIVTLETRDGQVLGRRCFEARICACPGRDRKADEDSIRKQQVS

p53 DBD = p53 DBD (UniProt P04637 94-312)
Sequence of p53 DBD (P04637 94-312): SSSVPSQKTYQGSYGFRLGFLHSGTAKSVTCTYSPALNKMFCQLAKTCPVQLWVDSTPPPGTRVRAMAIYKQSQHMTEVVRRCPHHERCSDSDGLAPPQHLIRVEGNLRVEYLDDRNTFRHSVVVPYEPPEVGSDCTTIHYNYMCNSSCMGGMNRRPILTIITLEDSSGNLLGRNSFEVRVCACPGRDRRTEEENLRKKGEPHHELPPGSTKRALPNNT

Measured: binding result

B1: Bax promoter 30-mer (dsDNA)
DNA 1: GGGCTCACAAGTTAGAGACAAGCCTGGGCG
DNA 2: CGCCCAGGCTTGTCTCTAACTTGTGAGCCC
binds: all assays above

B2: PUMA promoter 30-mer (dsDNA)
DNA 1: CGCGCCTGCAAGTCCTGACTTGTCCGCGGC
DNA 2: GCCGCGGACAAGTCAGGACTTGCAGGCGCG
binds: all assays above

From article PMC2532732
